Article PMC4369792

Assays:
[1] = target: salivary agglutinin (SAG) glycoprotein complex (UniProt Q9UGM3); test: single-cell force spectroscopy
[2] = target: fibronectin from human plasma (human); test: single-molecule force spectroscopy
[3] = target: salivary agglutinin (SAG) glycoprotein complex (UniProt Q9UGM3); test: single-molecule force spectroscopy

UniProt Q9UGM3, sequence (Q9UGM3 whole entry, looked up, one chain of several): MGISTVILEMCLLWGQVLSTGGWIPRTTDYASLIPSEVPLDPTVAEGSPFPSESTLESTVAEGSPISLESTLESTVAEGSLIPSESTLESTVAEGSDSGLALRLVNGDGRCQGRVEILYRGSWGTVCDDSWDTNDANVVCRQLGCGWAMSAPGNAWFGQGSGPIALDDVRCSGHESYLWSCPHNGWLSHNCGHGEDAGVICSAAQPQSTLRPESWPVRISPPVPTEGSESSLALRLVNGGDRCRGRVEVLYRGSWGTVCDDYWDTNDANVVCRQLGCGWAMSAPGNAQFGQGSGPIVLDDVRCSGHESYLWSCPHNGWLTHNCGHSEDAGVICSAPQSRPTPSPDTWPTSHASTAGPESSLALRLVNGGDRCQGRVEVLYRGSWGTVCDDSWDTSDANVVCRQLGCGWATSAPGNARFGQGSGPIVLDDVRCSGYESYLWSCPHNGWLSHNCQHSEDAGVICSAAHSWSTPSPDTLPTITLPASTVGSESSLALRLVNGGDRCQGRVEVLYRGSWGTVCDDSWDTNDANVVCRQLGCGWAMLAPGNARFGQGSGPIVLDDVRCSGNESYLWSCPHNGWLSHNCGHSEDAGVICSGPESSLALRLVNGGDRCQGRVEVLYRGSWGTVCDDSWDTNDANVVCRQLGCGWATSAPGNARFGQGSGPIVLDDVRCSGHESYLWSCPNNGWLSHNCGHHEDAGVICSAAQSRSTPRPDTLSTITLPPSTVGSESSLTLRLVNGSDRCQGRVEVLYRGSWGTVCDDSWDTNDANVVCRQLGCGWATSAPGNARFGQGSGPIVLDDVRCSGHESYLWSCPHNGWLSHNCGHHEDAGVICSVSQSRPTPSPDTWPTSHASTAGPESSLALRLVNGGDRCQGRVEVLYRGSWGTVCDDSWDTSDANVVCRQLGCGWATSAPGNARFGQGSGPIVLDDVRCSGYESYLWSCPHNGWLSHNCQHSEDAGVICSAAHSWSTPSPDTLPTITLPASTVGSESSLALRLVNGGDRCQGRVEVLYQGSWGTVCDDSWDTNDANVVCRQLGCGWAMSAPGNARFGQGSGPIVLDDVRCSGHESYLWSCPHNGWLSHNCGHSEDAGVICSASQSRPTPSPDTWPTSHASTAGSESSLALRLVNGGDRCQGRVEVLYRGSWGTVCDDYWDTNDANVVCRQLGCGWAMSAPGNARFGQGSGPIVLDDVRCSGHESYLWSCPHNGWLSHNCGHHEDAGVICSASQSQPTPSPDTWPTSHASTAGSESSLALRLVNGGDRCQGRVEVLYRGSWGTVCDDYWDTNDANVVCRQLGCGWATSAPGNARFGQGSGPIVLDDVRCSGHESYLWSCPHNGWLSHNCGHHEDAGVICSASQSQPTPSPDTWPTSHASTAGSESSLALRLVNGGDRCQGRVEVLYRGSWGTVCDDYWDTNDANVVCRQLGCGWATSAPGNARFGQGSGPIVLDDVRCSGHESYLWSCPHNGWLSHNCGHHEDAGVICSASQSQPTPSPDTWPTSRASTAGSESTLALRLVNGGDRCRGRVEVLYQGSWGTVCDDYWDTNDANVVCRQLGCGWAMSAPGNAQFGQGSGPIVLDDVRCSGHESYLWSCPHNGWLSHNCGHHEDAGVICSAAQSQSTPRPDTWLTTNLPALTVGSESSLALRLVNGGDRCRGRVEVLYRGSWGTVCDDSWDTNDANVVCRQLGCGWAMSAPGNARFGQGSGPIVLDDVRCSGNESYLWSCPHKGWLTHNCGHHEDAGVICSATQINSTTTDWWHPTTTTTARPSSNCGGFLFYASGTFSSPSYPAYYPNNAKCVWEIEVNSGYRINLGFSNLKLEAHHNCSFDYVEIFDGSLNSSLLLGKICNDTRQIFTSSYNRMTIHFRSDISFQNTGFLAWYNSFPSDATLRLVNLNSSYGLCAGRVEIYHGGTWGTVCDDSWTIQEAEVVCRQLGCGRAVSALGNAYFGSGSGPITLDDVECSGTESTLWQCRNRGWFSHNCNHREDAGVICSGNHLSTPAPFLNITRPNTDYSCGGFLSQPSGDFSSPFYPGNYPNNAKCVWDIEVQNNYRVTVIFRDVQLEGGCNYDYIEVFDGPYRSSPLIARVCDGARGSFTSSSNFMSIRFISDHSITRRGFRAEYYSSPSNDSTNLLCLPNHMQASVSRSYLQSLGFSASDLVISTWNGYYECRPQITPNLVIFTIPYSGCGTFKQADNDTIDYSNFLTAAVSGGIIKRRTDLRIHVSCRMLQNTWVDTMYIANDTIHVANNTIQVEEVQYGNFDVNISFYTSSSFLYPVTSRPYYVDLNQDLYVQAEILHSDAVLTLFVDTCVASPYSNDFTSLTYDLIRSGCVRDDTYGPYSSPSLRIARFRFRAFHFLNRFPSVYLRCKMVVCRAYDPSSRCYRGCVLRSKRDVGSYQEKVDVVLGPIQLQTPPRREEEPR

cell surface-localized P1 on living Streptococcus mutans NG8 cells (from UniProt P23504 39-1532) (natural protein)
adhesion force [1]: 100 to 1500 pN

full-length P1 adhesin of Streptococcus mutans (from UniProt P23504 39-1532) (natural protein)
mean adhesion force [2]: 46 pN | most probable adhesion force [3]: 57 pN

P1 globular head fragment (A3VP1) (domain or fragment)
binding frequency [2]: 49%
